This is an account of results in patent US20070179086A1 (Amgen, published 2007).

A word on the Kd: it is the equilibrium constant for the complex coming apart. Broadly, the koff is a measure of how fast the partners let go of each other. Broadly, the kon is the rate constant with which the complex forms.

B1: anti-TR-2 antibody P (antibody, V domains shown)
VH: QVQLQESGPGLVKPSQTLSLTCSVSGGSISSGGYYWSWIRQHPGKGLEWIGYIYYSGSTYCNPSLKSRVTISVDTSKNQFSLKLSSVTAADTAVYYCARDNGSGSYDWFDPWGQGILVTVSS
VL: DIQMTQSPSSVSASVGDRVTITCRASQGISSWLAWYQQKPGKAPKFLIFVASSFQSGVPSRFSGSGSGTDFTLTISSLQPEDFATYYCQQANSFPRTFGQGTKVEIK
notes: Human antibody from XenoMouse; also called Ab P
B2: anti-TR-2 antibody Q (antibody, V domains shown)
VH: QVQMQESGPGLVKPSQTLSLTCTVSGGSISSGDYYWSWIRQHPGKNLEWIGYIYYSGSTYYNPSLKSRVTISVDTSKNQFSLKLSSVTAADTAVYYCARDNGSGSYDWFDPWGQGTLVTVSS
VL: DIQMTQSPSSVSASVGDRVTITCRASQGISSWLAWYQQKPGKAPKFLIFVASSLQSGVPSRFSGSGSGTDFTLTISSLQPEDFATYYCQQANSFPRTFGQGTKVEIK
notes: Human antibody from XenoMouse; also called Ab Q
B3: anti-TR-2 antibody N (antibody, V domains shown)
VH: QLVESGGGVVQPGRSLRLSCAASGFTFSSYGMHWVRQAPGKGLEWVAVIWYDGRNKYYADSVKGRFTISRDNSKNTLYLQMNSLRAEDTAVYYCAREVGYCTNGVCSYYYYGMDVWGQGTTVTVSS
VL: DIQMTQSPSSLSASVGDRVTITCRASQGISNYLAWFQQKPGKAPKSLIYAASSLQSGVPSKFSGSGSGTDFTLTISSLQPEDFATYYCQQYNSYPLTFGGGTKVEIK
notes: also called Ab N
B4: anti-TR-2 antibody H (antibody, V domains shown)
VH: QVQLQESGPGLVKPSQTLSLTCTVSGGSISSDNYYWSWIRQHPGKGLEWIGYIYYSGSTYYNPSLKSRVTISVDTSKNQFSLKLSSVTAADTAVYYCARGVNWNFLFDIWGQGTMVTVSS
VL: not shown
notes: also called Ab H
B5: anti-TR-2 antibody G (antibody, V domains shown)
VH: QVQAEQSGPGLVKPSETLSLTCTVSGGSISNYYWSWIRQPPGKGLEWIGYIYYSGSTKYNPSLKSRVTISVDTSKNQFSLKLTSVTTADTAVYYCARDSPRGFSGYEAFDSWGQGTLVTVSS
VL: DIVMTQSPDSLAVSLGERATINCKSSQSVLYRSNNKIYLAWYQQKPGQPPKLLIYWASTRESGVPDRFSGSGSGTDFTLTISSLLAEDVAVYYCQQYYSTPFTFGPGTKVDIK
notes: also called Ab G
B6: anti-TR-2 antibody I (antibody, V domains shown)
VH: QVQLVESGGGLVKPGGSLRLSCAASGFTFSDYYMSWIRQAPGKGLEWVSYISRSGSTIYYADSVKGRFTISRDNAKNSLYLQMNSLRAEDTAVYYCARSLGGMDVWGQGTTVTVSS
VL: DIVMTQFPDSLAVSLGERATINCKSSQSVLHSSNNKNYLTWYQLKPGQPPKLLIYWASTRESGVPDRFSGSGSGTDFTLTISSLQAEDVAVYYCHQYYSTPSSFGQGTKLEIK
notes: also called Ab I
B7: anti-TR-2 antibody A (antibody, V domains shown)
VH: QVQLVQSGAEVKKPGASVKVSCKASGYTFTSYDINWVRQATGQGLEWMGWMNPNSDNTGYAQKFQGRVTMTRNTSISTAYMELSSLRSEDTAVYYCARWNHYGSGSHFDYWGQGTLVTVSS
VL: DIQMTQSPSSLSASVGDRVTITCRASQSISIYLNWYQQKPGKAPKLLIYAASSLQSGVPLRFSGSGSGTDFTLTISSLQPEDIATYYCQQSYKTPLTFGGGTKVEIK
notes: also called Ab A
B8: anti-TR-2 antibody J (antibody, V domains shown)
VH: QVQLVESGGGVVQPGRSLRLSCAASGFTFNNYGMHWVRQAPGKGLEWVAVIWYDGSNKYYADSVKGRFTISRDNSKNTLYLQMNSLRAEDTAVYYCARDRTVYSNSSPFYYYYYGMDVWGQGTTVTVSS
VL: DIQMTQSPSSLSASVGDRVTITCRTSQSISTYLNWYQQKPGKAPKLLISATSSLQSGVPSRFSGSGSGTDFTLTISSLQPEDFATYYCQQSYSTPLTFGGGTKVEIK
notes: also called Ab J
B9: anti-TR-2 antibody K (antibody, V domains shown)
VH: QVQLVESGGGVVQPGRSLRLSCAASGFTFSTYGMHWVRQAPGKGLEWVAVIWYDGSNKYYADSVKGRFTISRDNSKNTLYLQMNSLRAEDTAVYYCARDRTVYSSSSPFYYYYYGMDVWGQGTTVTVSS
VL: DIQMTQSPSSLSASVGDRVTITCRASQSISSYLNWYQQKPGKAPKLLISATSSFQSGVPSRFSGSGSGTDFTLTISSLQPEDFAAYYCQQSYSTPLTFGGGTKVEIK
notes: also called Ab K
B10: anti-TR-2 antibody E (antibody, V domains shown)
VH: QVQLVESGGGLVKPGGSLRLSCAASGFTFSDYYMNWIRQAPGKGLEWVSHISSSGSILDYADSVKGRFTISRDNAKNSLYLQMNSLRVEDTAVYYCARDGAAAGTDAFDLWGQGTMVTVSS
VL: DIQMTQSPSSLSASVGDRVTITCRSSQSISNYINWYQQRPGKAPNLLIHDVSSFQSAVPSRFSRSGSGTVFTLTISSLQPEDFATYFCQQTYITPFTFGPGTKVDIK
notes: also called Ab E
B11: anti-TR-2 antibody D (antibody, V domains shown)
VH: QVQLQESGPGLVKPSQTLSLTCTVSGGSISSGGHYWSWIRQHPGKGLEWIGYIYYSGSAYYNPSLKSRVTISVDTSKNQFSLKLSSVTAADTAVYYCARDDSSGWGFDYWGQGILVTVSS
VL: DIQMTQSPSSLSASVGDRVTITCRASQGLRNDLGWFQQKPGKAPKRLIYAASSLQRGVPSRFSGSGSGTEFTLTISSLQPEDFTTYFCLQHNSFPWTFGQGTKVEIK
notes: Human antibody from XenoMouse; also called Ab D
B12: anti-TR-2 antibody C (antibody, V domains shown)
VH: QVQLQESGPGLVKPSQTLSLTCTVSGGSISSGGHYWSWIRQHPGKGLEWIGYIYYSGSAYYNPSLKSRVTISVDTSKNQFSLKLSSVTAADTAVYYCARDDSSGWGFDYWGQGILVTVSS
VL: DIQMTQSPSSLSASVGDRVTITCRASQGLRNDLGWFQQKPGKAPKRLIYAASSLQRGVPSRFSGSGSGTEFTLTISSLQPEDFTTYFCLQHNSFPWTFGQGTKVEIK
notes: Human antibody from XenoMouse; also called Ab C
B13: anti-TR-2 antibody B (antibody, V domains shown)
VH: QVQLQESGPGLVKPSQTLSLTCTVSGGSISSGGHYWSWIRQHPGKGLEWIGYIYYSGSTYYNPSLKSRVTISVDTSKNQFSLKLSSVTAADTAVYYCARDDSSGWGFDYWGQGILVTVSS
VL: DIQMTQSPSSLSASVGDRVTITCRASQGLRNDLGWFQQKPGKVTKRLIYAASSLQRGVPSRFSGSGSGTEFTLTISSLQPEDFATYYCLQHYSFPWTFGQGTKVEIK
notes: Human antibody from XenoMouse; also called Ab B
B14: anti-TR-2 antibody M (antibody, V domains shown)
VH: EVQVVESGGGLVKPGGSLRLSCAASGFTFSSYSMNWVRQAPGKGLEWVSSISSSSSYIYYADSVKGRFTISRDNAKNSLYLQMNSLRAEDTAVYYCARGGSSWYGDWFDPWGQGTLVTVSS
VL: DIQMTQSPSSVSASVGDRVTITCRASQGISSWLVWYQQKPGKAPKLLIYAASSLQSGVPSRFSGSGSGTDFTLTISSLQPEDFATYYCQQANSFPFTFGGGTKVEIK
notes: also called Ab M
B15: anti-TR-2 antibody F (antibody, V domains shown)
VH: QVQLVESGGGVVQPGRSLRLSCAASGFTFSYYGIHWVRQAPGKGLEWVAVIWYDGSNKYYADSVKGRFTISRDNSKNTLYLQMNSLRAEDTAVYYCARGRYSSSSWWYFDLWGRGTLVTVSS
VL: DIQMTQSPSSLSASVGDRVTITCRASQGISNYLAWYQQKPGKVPKLLIYAASTLQSGVPSRFSGSGSGTDFTLTISSLQPEDVATYYCQKYNSAPLTFGGGTKVEIK
notes: also called Ab F
B16: anti-TR-2 antibody L (antibody, V domains shown)
VH: QVQLQQWGARLLKPSETLSLTCAVYGGSFSGYYWSWIRQPPGKGLEWIGEINHSGSTNYNPSLKSRVTISVDTSKNQFSLKLRSVTAADTAVYYCARGGSSGYWYFDLWGRGTLVTVSS
VL: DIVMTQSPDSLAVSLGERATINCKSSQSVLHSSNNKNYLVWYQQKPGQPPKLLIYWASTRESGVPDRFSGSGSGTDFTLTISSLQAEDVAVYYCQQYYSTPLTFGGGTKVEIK
notes: also called Ab L
B17: anti-TR-2 antibody O (antibody, V domains shown)
VH: QVQLQESGPGLVKPSQTLSLTCTVSGGSISSGDYFWSWIRQLPGKGLECIGHIHNSGTTYYNPSLKSRVTISVDTSKKQFSLRLSSVTAADTAVYYCARDRGGDYYYGMDVWGQGTTVTVSS
VL: EIVLTQSPGTLSLSPGERATLSCRASQGISRSYLAWYQQKPGQAPSLLIYGASSRATGIPDRFSGSGSGTDFTLTISRLEPEDFAVYYCQQFGSSPWTFGQGTKVEIK
notes: also called Ab O

The first experiment deals with T1, recombinant human TR-2 with a C-terminal hexahistidine tag (TR-2-His) (human, UniProt O14763 56-207).
T1 construct: also called soluble TR-2-His
Nature of the experiment: SPR Biacore 2000; antibody captured on anti-human antibody chip, 226 nM TR-2-His injected, 25 C, 1:1 model; data heterogeneous, fit poorly.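 Also: goat anti-human capture surface amine-coupled on CM5 chip, HBS-P running buffer with BSA, responses normalized to captured antibody level, kinetics from global 1:1 fitting.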
Method: (§1) The kinetics of the binding of anti-TR-2 antibodies A to Q to TR-2 was analyzed using a Biacore® 2000 instrument. High-density goat anti-human antibody surfaces were prepared on CM-5 Biacore® chips using routine amine coupling. Each purified anti-TR-2 antibody was diluted to approximately 1 μg/ml in HBS-P running buffer containing 100 μg/ml BSA. Each anti-TR-2 antibody was captured on a separate surface using a two minute contact time and a five minute wash to stabilize the anti-TR-2 antibody surface on the chip.
(§2) Additionally, the data for TR-2 binding to anti-TR-2 antibody were normalized for the amount of monoclonal antibody captured on each surface. Each data set was fit globally to a 1:1 interaction model to determine binding kinetics.
For the molecule B1, the Kd is 33 nM, the off-rate (koff) amounted to 0.027 s⁻¹ and the kon amounted to 810000 M⁻¹ s⁻¹.

On to B2, for which the dissociation constant (Kd) stood at 13 nM, the koff was 0.016 s⁻¹ and the kon was 1.2e+06 M⁻¹ s⁻¹.

Turning to B3, the equilibrium dissociation constant (Kd) turned out to be 68 nM, the off-rate (koff) is 0.055 s⁻¹ and the kon stood at 810000 M⁻¹ s⁻¹.

The next experiment deals with T1, recombinant human TR-2 with a …. Nature of the experiment: SPR Biacore 2000; antibody captured on anti-human antibody chip, 226 nM TR-2-His injected, 25 C, 1:1 model.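 Also: goat anti-human capture surface amine-coupled on CM5 chip, HBS-P running buffer with BSA, responses normalized to captured antibody level, kinetics from global 1:1 fitting.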 On the technique in general: In SPR one partner is held on a chip, and binding of the other changes the refractive index at the surface.
Method: as §1, §2
With B4, the Kd came out at 9.8 nM, the koff amounted to 0.0084 s⁻¹ and the kon came out at 860000 M⁻¹ s⁻¹.

As to B5, the Kd was determined as 31 nM, the koff stood at 0.019 s⁻¹ and the kon is 600000 M⁻¹ s⁻¹.

Take B6: the dissociation constant Kd came out at 4.4 nM, the koff came out at 0.0013 s⁻¹ and the kon is 290000 M⁻¹ s⁻¹.

For the molecule B7, the Kd came to 6.9 nM, the koff came out at 0.0037 s⁻¹ and the kon came out at 530000 M⁻¹ s⁻¹.

With B8, the Kd was found to be 12 nM, the koff came out at 0.0071 s⁻¹ and the association rate constant (kon) was determined as 570000 M⁻¹ s⁻¹.

For the molecule B9, the Kd stood at 18 nM, the off-rate (koff) was 0.012 s⁻¹ and the on-rate constant (kon) came out at 680000 M⁻¹ s⁻¹.

On to B10, for which the Kd is 2.1 nM, the off-rate constant (koff) is 0.0018 s⁻¹ and the on-rate (kon) came out at 870000 M⁻¹ s⁻¹.

As to B11, the equilibrium dissociation constant (Kd) came to 4.5 nM, the off-rate constant (koff) was 0.0027 s⁻¹ and the association rate constant (kon) stood at 620000 M⁻¹ s⁻¹.

Turning to B12, the dissociation constant (Kd) worked out at 3.9 nM, the dissociation rate constant (koff) came to 0.0026 s⁻¹ and the kon is 680000 M⁻¹ s⁻¹.

Take B13: the equilibrium dissociation constant (Kd) was 19 nM, the koff turned out to be 0.011 s⁻¹ and the on-rate constant (kon) was found to be 570000 M⁻¹ s⁻¹.

Take B14: the dissociation constant (Kd) is 37 nM, the koff came to 0.012 s⁻¹ and the kon came to 340000 M⁻¹ s⁻¹.

Regarding B15, the dissociation constant (Kd) was 13 nM, the off-rate (koff) was found to be 0.005 s⁻¹ and the kon was 380000 M⁻¹ s⁻¹.

Take B16: the Kd is 18 nM, the off-rate constant (koff) turned out to be 0.011 s⁻¹ and the kon stood at 600000 M⁻¹ s⁻¹.

For the molecule B17, the equilibrium dissociation constant (Kd) came to 19 nM, the koff turned out to be 0.0084 s⁻¹ and the kon was 440000 M⁻¹ s⁻¹.
